What was measured:
[1] = molecular target: IgG of IgG Sepharose 6 Fast Flow resin (GE Healthcare); assay: batch binding of 293F conditioned media to IgG Sepharose, Western blot quantitation, n=2
[2] = molecular target: IgG of IgG Sepharose 6 Fast Flow resin (GE Healthcare); assay: IgG-Sepharose column, 24 h CHO conditioned media, Western blot

B1: FcγRIIA/RIA-CH6 (soluble hybrid receptor: first Ig domain of FcγRIIA followed by second and third Ig domains of FcγRIA, C-terminal six His tag) (receptor)
chain: AAPPKAVLKLEPPWINVLQEDSVTLTCQGARSPESDSIQWFHNGNLIPTHTQPSYRFKANNNDSGEYTCQTGQTSLSDPVHLTVLSEWLLLQVSSRVFTEGEPLALRCHAWKDKLVYNVLYYRNGKAFKFFHWNSNLTILKTNISHNGTYHCSGMGKHRYTSAGISVTVKELFPAPVLNASVTSPLLEGNLVTLSCETKLLLQRPGLQLYFSFYMGSKTLRGRNTSSEYQILTARREDSGLYWCEAATEDGNVLKRSPELELQVLGGSGGHHHHHH
Question: What does the source list for B1?
Answer: percent of total expressed in IgG Sepharose flow-through (aggregate amount) [1]: 14.2%; percent of total expressed recovered from IgG resin [1]: 40%

B2: FcγRIIIA/RIA-CH6 (soluble hybrid receptor: first Ig domain of FcγRIIIA followed by second and third Ig domains of FcγRIA, C-terminal six His tag) (receptor)
chain: EDLPKAVVFLEPQWYRVLEKDSVTLKCQGAYSPEDNSTQWFHNESLISSQASSYFIDAATVDDSGEYRCQTNLSTLSDPVQLEVHIGWLLLQVSSRVFTEGEPLALRCHAWKDKLVYNVLYYRNGKAFKFFHWNSNLTILKTNISHNGTYHCSGMGKHRYTSAGISVTVKELFPAPVLNASVTSPLLEGNLVTLSCETKLLLQRPGLQLYFSFYMGSKTLRGRNTSSEYQILTARREDSGLYWCEAATEDGNVLKRSPELELQVLGGSGGHHHHHH
Question: With B2 as the binder, how does the percent of total expressed in IgG Sepharose flow-through (aggregate amount) [1] read?
Answer: 36%

Question: And the percent of total expressed recovered from IgG resin [1]?
Answer: 82%

Question: What about the percent of total applied bound to IgG-Sepharose [2] of the same binder?
Answer: 53%

Question: What about the percent of total applied in the wash (unbound) [2] of the same binder?
Answer: 47%

From patent US20110217291A1
